Legend:
[1] = molecular target: Klebsiella pneumoniae AcrB multidrug efflux pump (Klebsiella pneumoniae) (UniProt W9B4M6); assay: cryo-EM structure; single-particle cryo-EM of 10 uM KpAcrB in lipidic nanodiscs (MSP 1E3D1, E. coli total extract lipid; 20 mM Tris-HCl pH 7.5, 100 mM NaCl); apo, and after 2 h with 500 uM erythromycin
[2] = molecular target: T1, KpAcrB (K. pneumoniae AcrB multidrug efflux pump) (Klebsiella pneumoniae, UniProt W9B4M6); assay: microscale thermophoresis (label-free); cryo-EM structure of the complex also solved; format: binding
T1 construct: full-length, 1,048 residues (model 1-1033), N-terminal 6xHis tag, pET15b, expressed in E. coli BL21(DE3) delta-acrB; homotrimer; in DDM for MST, in MSP1E3D1 lipid nanodiscs for cryo-EM

Molecule | stoichiometry N [1] | Kd [2] [µM]
Klebsiella pneumoniae AcrB multidrug efflux pump (from UniProt W9B4M6 1-1048) (natural protein) | 3 | 
CC[C@H]1OC(=O)[C@H](C)[C@@H](O[C@H]2C[C@@](C)(OC)[C@@H](O)[C@H](C)O2)[C@H](C)[C@@H](O[C@@H]2O[C@H](C)C[C@H](N(C)C)[C@H]2O)[C@](C)(O)C[C@@H](C)C(=O)[C@H](C)[C@@H](O)[C@]1(C)O [erythromycin] |  | 14.4 ± 2.6

Source: publication PMC10294659, “Cryo-EM Structures of the Klebsiella pneumoniae AcrB Multidrug Efflux Pump” (mBio, 2023)
